Source: PMC3196576, “Probing the Functional Mechanism of Escherichia coli GroEL Using Circular Permutation” (PLoS ONE, 2011)

B1: bovine rhodanese (enzyme, UniProt P00586 1-297, looked up)
chain: MVHQVLYRALVSTKWLAESVRAGKVGPGLRVLDASWYSPGTREARKEYLERHVPGASFFDIEECRDKASPYEVMLPSEAGFADYVGSLGISNDTHVVVYDGDDLGSFYAPRVWWMFRVFGHRTVSVLNGGFRNWLKEGHPVTSEPSRPEPAIFKATLNRSLLKTYEQVLENLESKRFQLVDSRAQGRYLGTQPEPDAVGLDSGHIRGSVNMPFMNFLTEDGFEKSPEELRAMFEAKKVDLTKPLIATCRKGVTACHIALAAYLCGKPDVAIYDGSWFEWFHRAPPETWVSQGKGGKA
notes: rhodanese (thiosulfate sulfurtransferase), bovine; Unfolded for 1 hr in 6 M guanidine hydrochloride at 25°C before it was added to GroEL; also called unfolded rhodanese; source: bought: Sigma
B2: GroEL CP209 (other, E. coli)
chain: METGAVELESPFILLADKKISNIREMLPVLEAVAKAGKPLLIIAEDVEGEALATLVVNTMRGIVKVAAVKAPGFGDRRKAMLQDIATLTGGTVISEEIGMELEKATLEDLGQAKRVVINKDTTTIIDGVGEEAAIQGRVAQIRQQIEEATSDYDREKLQERVAKLAGGVAVIKVGAATEVEMKEKKARVEDALHATRAAVEEGVVAGGGVALIRVASKLADLRGQNEDQNVGIKVALRAMEAPLRQIVLNCGEEPSVVANTVKGGDGNYGYNAATEEYGNMIDMGILDPTKVTRSALQYAASVAGLMITTECMVTDLPKNDAADLGAAGGMGGMGGMGGMMVDAAKDVKFGNDARVKMLRGVNVLADAVKVTLGPKGRNVVLDKSFGAPTITKDGVSVAREIELEDKFENMGAQMVKEVASKANDAAGDGTTTATVLAQAIITEGLKAVAAGMNPMDLKRGIDKAVTAAVEELKALSVPCSDSKAIAQVGTISANSDETVGKLIAEAMDKVGKEGVITVEDGTGLQDELDVVEGMQFDRGYLSPYFINKP
notes: start methionine from the vector-derived ATG; GroEL, E. coli, from Glu209 to the original C-terminus; Val-Asp dipeptide linker (SalI site) joining the original C- and N-termini; GroEL, E. coli, from the original N-terminus minus the N-terminal methionine to Pro208; Circular permutant; source: E. coli JM109, purified (protocol of Machida et al. [34]); copies: 14
B3: GroES (natural protein, E. coli, UniProt P0A6F9 1-97, looked up)
chain: MNIRPLHDRVIVKRKEVETKSAGGIVLTGSAAAKSTRGEVLAVGNGRILENGEVKPLDVKVGDIVIFNDGYGVKSEKIDNEEVLIMSESDILAIVEA
notes: GroES cochaperonin, Escherichia coli; 7-mer; also called cochaperonin GroES; co-chaperonin; source: purified according to Iwasa et al. [35], with an 80°C heat treatment
B4: GroEL CP254 (other, E. coli)
chain: MAAAQYVEGEALATLVVNTMRGIVKVAAVKAPGFGDRRKAMLQDIATLTGGTVISEEIGMELEKATLEDLGQAKRVVINKDTTTIIDGVGEEAAIQGRVAQIRQQIEEATSDYDREKLQERVAKLAGGVAVIKVGAATEVEMKEKKARVEDALHATRAAVEEGVVAGGGVALIRVASKLADLRGQNEDQNVGIKVALRAMEAPLRQIVLNCGEEPSVVANTVKGGDGNYGYNAATEEYGNMIDMGILDPTKVTRSALQYAASVAGLMITTECMVTDLPKNDAADLGAAGGMGGMGGMGGMMVDAAKDVKFGNDARVKMLRGVNVLADAVKVTLGPKGRNVVLDKSFGAPTITKDGVSVAREIELEDKFENMGAQMVKEVASKANDAAGDGTTTATVLAQAIITEGLKAVAAGMNPMDLKRGIDKAVTAAVEELKALSVPCSDSKAIAQVGTISANSDETVGKLIAEAMDKVGKEGVITVEDGTGLQDELDVVEGMQFDRGYLSPYFINKPETGAVELESPFILLADKKISNIREMLPVLEAVAKAGKPLLIIAEDVAN
notes: start methionine and extraneous N-terminal residues (Met-Ala-Ala-Ala-Gln-Tyr); GroEL, E. coli, from Val254 to the original C-terminus; Val-Asp dipeptide linker (SalI site) joining the original C- and N-termini; GroEL, E. coli, from the original N-terminus minus the N-terminal methionine to Asp253 (Ala251-Glu252-Asp253); C-terminal residues after Asp253 (Val-Ala-Asn); Circular permutant; source: …

Legend:
GroEL R231W = target: T1, GroEL R231W (E. coli, UniProt P0A6F5 1-548, R231W); assay: Proteinase K protection of BeFx football complexes, recovered by centrifugal concentration (100 kDa cutoff), SDS-PAGE; 0.5 µM GroEL 14-mer, 1.0 µM unfolded rhodanese, 1.1 µM GroES, 1 mM BeCl2, 10 mM NaF, 1 mM ATP; 30 mM Tris-HCl pH 7.2, 50 mM KCl, 10 mM Mg(CH3COO)2, 25°C; 1 µg/ml Proteinase K for 30 min; conditions: both partners purified
T1 construct: GroEL, Escherichia coli, with Arg231 replaced by tryptophan; also called RW; source: purified according to the protocol of Machida et al. [34]; copies: 14

[1] = target: the molecule itself; assay: SEC; gel filtration profiles observed during purification (AKTA FPLC, 4°C); data not shown

Row | Binder | binding result (GroEL R231W) | stoichiometry N [1]
1 | B1 | binds | 
2 | B2 |  | ~14
3 | B3 | binds | 
4 | B4 |  | ~14
